In patent US8691225B2, “Antibodies against the ectodomain of ErbB3 and uses thereof” (Merrimack Pharmaceuticals, Inc., priority 2007, dated 2014):

Tests used:
[1] = target: TGF-α (Homo sapiens, UniProt P01135); assay: binding specificity ELISA; details: IgG2 isotype of Ab #6
Protocol: (§1) 96-well NUNC MAXISORB plates are coated by overnight incubation at room temperature with 50 μl/well of 5 μg/ml of individual proteins. The proteins are recombinant human EGFR ectodomain, BSA, recombinant human ErbB3 ectodomain and TGF-α. The next morning, plates are washed 3 times with […] of PBST (0.05% Tween-20) in the BIOTEK plate washer. The wells are blocked for 1 hr at room temperature with 2% BSA in PBS and washed again as before. […] All samples are run in duplicate and incubated for 2 hrs at 4° C. on a plate shaker. The plates are washed again as before. 50 μl of human IgG-Fc detection antibody (HRP conjugated, Bethyl Laboratories, Inc; 1:75000 dilution in 2% BSA, PBST) is added and the plates are incubated for 1 hr at room temperature. The plates are washed again as before. 50 μL of SUPERSIGNAL ELISA Pico substrate is added and the plate is read on the FUSION plate reader (Packard/Perkin Elmer). The data is analyzed using the EXCEL program. Duplicate samples are averaged and the error bars represent the standard deviation between the two replicates.

[2] = target: T1, recombinant human EGFR ectodomain (Homo sapiens, UniProt P00533); assay: binding specificity ELISA; details: IgG2 isotype of Ab #6
T1 construct: recombinant human EGFR ectodomain
Protocol: as §1

[3] = target: T2, recombinant human ErbB3 ectodomain (Homo sapiens, UniProt P21860); assay: binding specificity ELISA; details: IgG2 isotype of Ab #6
T2 construct: recombinant human ErbB3 ectodomain
Protocol: as §1

[4] = target: T3, ErbB3 in MALME-3M xenografts (Homo sapiens, UniProt P21860); assay: total ErbB3 in MALME-3M xenografts in vivo; parameters: species or system mouse; details: MALME-3M xenograft, 24 hours post-injection, IgG1 or IgG2 isotype
T3 construct: ErbB3 expressed on MALME-3M melanoma cells; host or cells: MALME-3M melanoma cells
Protocol: T-cell deficient nu/nu mice (3-4 week old female mice originated at NIH; outbred; albino background) were purchased from Charles River Labs (Wilmington, Mass.). MALME-3M cells for implantation were grown in culture (RPMI media, 10% FBS, L-glutamine and antibiotics, 37° C., 5% CO2) to about 80% confluency before harvesting. Cells were kept on ice until implantation.
The tumors were measured (length by width) by digital caliper and the mice were pretreated with murine IgG2a (Sigma, M7769—5 mg) by intravenous injection to block in vivo depletion of tested antibodies by murine Fc receptors.
Final tumor measurements (L×W) were taken, the mice were euthanized by CO2 asphyxiation and tumors were excised, snap frozen in liquid nitrogen, and were stored at −80° C. (for biochemical analysis). Final tumor measurements were analyzed and graphed by tumor area and tumor volume as described, for example, in Burtrum et al., (2003) Cancer Res., 63:8912-8921. The data was also analyzed by “normalized” and “non-normalized” means for both tumor volume and tumor area. For the “normalization” of the data, at each time point of measurement, each tumor in each group was divided by the initial tumor size determined by caliper measurement.

[5] = test system: DU145 (a prostate tumor cell line) xenograft tumors; assay: DU145 xenograft combination therapy; type: in vivo, mouse; details: Ab #6 300 μg IP every three days; taxol 20 mg/kg IP once per week
Protocol: In a second experiment, mice bearing DU145 (a prostate tumor cell line) xenograft tumors are prepared by establishing tumors subcutaneously in the flanks of nude mice (Charles River Laboratories). […] Again, tumor size is measured twice a week and measurements are used to calculate tumor volume.

[6] = target: T4, heregulin binding to ErbB3 on MALME-3M cells (Homo sapiens, UniProt P21860); assay: biotinylated heregulin binding to MALME3M cells by FACS; type: cell-based; details: 5 μM antibody, 20 nM heregulin EGF
T4 construct: ErbB3 expressed on MALME-3M melanoma cells; host or cells: MALME-3M melanoma cells
Protocol: After 30 minutes, 50 μl of 40 nM biotinylated heregulin EGF is added to the cells and incubated for another 10 minutes on ice. This yields a final concentration of 5 μM antibody and 20 nM heregulin EGF. Cells are then washed twice with 500 μl BD stain buffer and incubated with 100 μl of a 1:200 dilution of streptavidin-PE (PE=phycoerythrin) (Invitrogen) in BD stain buffer for 45 minutes. Finally, cells are washed twice, resuspended in 300 μl of BD stain buffer and analyzed in a FACSCALIBUR flow cytometer. As a positive control, 1×10^5 MALME3M cells are incubated with 20 nM heregulin EGF for 10 minutes on ice, washed twice and incubated with a 1:200 dilution of streptavidin-PE for 45 minutes. In order to assess background staining from the streptavidin-PE conjugate, 1×10^5 MALME3M cells are incubated with 100 μl of a 1:200 dilution of streptavidin-PE only for 45 minutes.

[7] = PK analyses of serum and intra-tumoral levels from xenograft studies; type: in vivo, mouse; details: serum from animals of the xenograft studies
Text: The data (obtained using the methods described above or minor variations thereof) from three different models derived from human tumor cell lines, AdrR (ovarian), Du145 (prostate) and OvCAR8 (ovarian) data are shown in FIGS. 17A-C and Colo357 (pancreatic) xenograft study data are shown in FIG. 17D.

[8] = target: BSA (Bos taurus, UniProt P02769); assay: binding specificity ELISA; parameters: species or system bovine; details: IgG2 isotype of Ab #6
Chain of BSA (P02769 25-607): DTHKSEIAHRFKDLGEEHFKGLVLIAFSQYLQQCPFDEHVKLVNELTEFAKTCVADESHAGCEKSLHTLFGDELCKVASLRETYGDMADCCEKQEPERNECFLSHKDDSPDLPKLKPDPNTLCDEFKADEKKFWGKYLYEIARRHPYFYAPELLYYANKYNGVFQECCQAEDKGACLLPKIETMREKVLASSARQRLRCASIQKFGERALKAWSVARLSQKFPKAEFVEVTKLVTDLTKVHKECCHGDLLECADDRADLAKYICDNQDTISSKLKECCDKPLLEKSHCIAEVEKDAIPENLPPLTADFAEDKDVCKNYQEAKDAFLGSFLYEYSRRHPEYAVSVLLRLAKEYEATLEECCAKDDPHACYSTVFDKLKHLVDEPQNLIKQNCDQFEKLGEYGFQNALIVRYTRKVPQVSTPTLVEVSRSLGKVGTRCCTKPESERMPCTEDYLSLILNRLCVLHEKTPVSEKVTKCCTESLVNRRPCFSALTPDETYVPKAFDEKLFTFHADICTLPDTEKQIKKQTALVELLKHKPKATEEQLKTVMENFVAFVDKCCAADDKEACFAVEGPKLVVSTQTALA
Protocol: as §1

[9] = test system: AdrR (ovarian) xenograft; assay: xenograft tumor growth in nude mice; type: in vivo, mouse; details: 300 ug every three days (Q3d); p<0.05
Protocol: (§2) For example, T-cell deficient nu/nu mice (3-4 week old female mice originated at NIH; outbred; albino background) are purchased from Charles River Labs (Wilmington, Mass.) for xenograft studies. AdrR cells for implantation are grown in culture (RPMI media, 10% FBS, L-glutamine and antibiotics, 37° C., 5% CO2) to about 85% confluency before harvesting. Cells are kept on ice until implantation. Mice are implanted via subcutaneous injection with 100 μl AdrR cells (6×10^6 cells in PBS) on the right flank and allowed to recover while being monitored for initial tumor growth.
(§3) Tumors are measured (length by width) by digital caliper and the mice are dosed with IgG2a (Sigma, M7769-5MG) by intravenous injection.
(§4) Final tumor measurements (L×W) are taken, the mice are euthanized by CO2 asphyxiation and tumors are excised, snap frozen in liquid nitrogen, and are stored at −80° C. (for biochemical analysis). Final tumor measurements are analyzed and graphed by tumor area and tumor volume, as described in Burtrum et al., supra. The data are also analyzed by “normalized” and “non-normalized” means for both tumor volume and tumor area. For the “normalization” of the data, at each time point of measurement, each tumor in each group is divided by the initial tumor size determined by caliper measurement.

[10] = test system: OvCAR8 (ovarian) xenograft; assay: xenograft tumor growth in nude mice; type: in vivo, mouse
Protocol: as §2, §3, §4

B1: Ab #6: human anti-ErbB3 antibody from Fab-phage library, CDRs SEQ ID NOs:7-12; used as IgG1 and IgG2 isotypes; in phase I trials as MM-121 (antibody, V domains shown)
VH: EVQLLESGGGLVQPGGSLRLSCAASGFTFSHYVMAWVRQAPGKGLEWVSSISSSGGWTLYADSVKGRFTISRDNSKNTLYLQMNSLRAEDTAVYYCTRGLKMATIFDYWGQGTLVTVSS
VL: QSALTQPASVSGSPGQSITISCTGTSSDVGSYNVVSWYQQHPGKAPKLIIYEVSQRPSGVSNRFSGSKSGNTASLTISGLQTEDEADYYCCSYAGSSIFVIFGGGTKVTVL
[1]
  binding in ELISA: did not show any appreciable binding
[2]
  binding in ELISA: did not show any appreciable binding
[3]
  binding in ELISA: bound recombinant ErbB3
[4]
  downregulation of total ErbB3 in xenograft tumors: significant downregulation of total ErbB3
[5]
  inhibition of tumor growth (tumor volume): inhibited tumor growth
[6]
  inhibition of heregulin binding to ErbB3: able to inhibit heregulin binding to ErbB3
[7]
  serum retention: dose-dependent increase in the serum retention
[8]
  binding in ELISA: did not show any appreciable binding
[9]
  inhibition of tumor growth: significant inhibition of tumor growth
[10]; 300 ug every three days (Q3d), p<0.05
  inhibition of tumor growth: significant inhibition of tumor growth
[10]; 1500 ug Q3d versus 600 ug
  inhibition of tumor growth: did not result in increased efficacy
